Biological target: SNAP-GLP-1R (glucagon-like peptide-1 receptor with an N-terminal SNAP-tag) on HEK293-SNAP-GLP-1R cells (UniProt P43220)
Test: FRET

Chain of UniProt P43220 (P43220 24-463): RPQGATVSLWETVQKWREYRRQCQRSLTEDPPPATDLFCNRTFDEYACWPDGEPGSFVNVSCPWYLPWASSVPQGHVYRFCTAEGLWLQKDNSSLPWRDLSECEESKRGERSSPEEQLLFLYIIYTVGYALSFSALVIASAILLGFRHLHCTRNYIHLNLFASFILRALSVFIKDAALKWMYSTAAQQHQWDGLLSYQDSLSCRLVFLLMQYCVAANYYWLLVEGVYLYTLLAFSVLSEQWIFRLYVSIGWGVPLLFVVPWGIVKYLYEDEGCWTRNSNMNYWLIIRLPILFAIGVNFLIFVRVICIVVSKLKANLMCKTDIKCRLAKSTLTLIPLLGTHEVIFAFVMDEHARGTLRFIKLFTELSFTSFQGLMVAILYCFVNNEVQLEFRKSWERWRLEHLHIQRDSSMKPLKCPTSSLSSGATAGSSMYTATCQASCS

Substance: exendin-4 (from UniProt P26349 48-87)
- Ki: 0.63 nM

Substance: exendin-4-C16 (from UniProt P26349 48-87)
- Ki: 1.6 nM

From doi:10.1101/2021.04.01.438030
